In US20250129143A1 (TOKYO METROPOLITAN INSTITUTE OF MEDICAL SCIENCE, published 2025):
Each block holds one binder with its values, some of them ahead of it.

Experiments:
[1] = biological target: T1, biotinylated ubiquitin (human-derived ubiquitin with C-terminal Cys residue and 6xHis tag, biotin on the Cys) (human, UniProt P0CG48 1-76, biotin tag (EZ-Link Maleimide-PEG11-Biotin) on the added C-terminal Cys residue); test: BLI; biotinylated ubiquitin on streptavidin sensor, Monobody-Nus-His6 as analyte
T1 construct: mature; Construct pET21a-hUb-Cys-His6; also called hUb-Cys-His6; biotin-labeled ubiquitin monomer

K33 = biological target: T2, K33 (human); test: immunoprecipitation from HCT-116 cell extract; quantitative mass spectrometry; pie chart [panel B]
T2 construct: also called K33 chain; K33-linked ubiquitin chain
Source text: (§1) FIG. 7 is a view showing the results of quantitative mass spectrometry analysis of immunoprecipitates. […] The immunoprecipitates subjected to FIG. 5C were electrophoresed, and high molecular weight regions (62 kDa or more) were subjected to quantitative mass spectrometry analysis. A stable isotope-labeled ubiquitin-derived peptide (name: EST) as an internal standard and 8 types of ubiquitin chain-derived peptides (names: K6, K11, K27, K29, K33, K48, K63, and M1) were used, and the quantification values (fmol) were described. Since the EST peptide sequence overlaps with the K63 chain peptide sequence, the total ubiquitin value was calculated by adding the value of the K63 chain-derived peptide to the quantitative value of the EST peptide. The total amount of ubiquitin contained in the ubiquitin monobody immunoprecipitates was confirmed to be higher than that of FK2 or P4D1. […] The value of the control is subtracted from the value of each antibody, a total value of the 8 types of ubiquitin chain-derived peptides is set at 100%, and the percentage of each ubiquitin chain is shown as a pie chart.
(§2) The above-described immunoprecipitate was electrophoresed on 4%-12% NuPAGE Bis-Tris gels (Thermo Fisher Scientific) in MES buffer (Thermo Fisher Scientific) for about 2 cm, and was then stained with CBB (Bio-Safe Commassie, Bio-Rad). After the gel was washed with Milli-Q water, a gel of 62 kDa or more was cut out using a molecular weight marker as an indicator, and the gel was cut into 1 mm squares. The gel pieces were collected in an Eppendorf tube and were washed with 50 mM ammonium bicarbonate and 30% acetonitrile (ACN) for 2 hours, and then with 50 mM ammonium bicarbonate and 50% ACN for 1 hour, and were dehydrated in 100% ACN for 15 minutes. Subsequently, a trypsin solution (20 ng/ml Trypsin Gold, Promega, 50 mM ammonium bicarbonate, and 5% ACN) was added to the resultant, which was then digested at 37° C. overnight.

K27 = biological target: T3, K27 (human); test: as above
T3 construct: also called K27 chain; K27-linked ubiquitin chain
Source text: as §1, §2

M1 = biological target: T4, M1 (human); test: as above
T4 construct: quantified through the peptide GGM[Oxid]QIFVK; also called M1 chain; M1-linked ubiquitin chain
Source text: as §1, §2

K63 = biological target: T5, K63 (human); test: as above
T5 construct: also called K63 chain; K63-linked ubiquitin chain
Source text: as §1, §2

K6 = biological target: T6, K6 (human); test: as above
T6 construct: quantified through the peptide M[Oxid]QIFVK[di-GlyGly]TLTGK; also called K6 chain; K6-linked ubiquitin chain
Source text: as §1, §2

K29 = biological target: T7, K29 (human); test: as above
T7 construct: quantified through the peptide AK[di-GlyGly]IQDK; also called K29 chain; K29-linked ubiquitin chain
Source text: as §1, §2

K48 = biological target: T8, K48 (human); test: as above
T8 construct: quantified through the peptide LIFAGK[di-GlyGly]QLEDGR; also called K48 chain; K48-linked ubiquitin chain
Source text: as §1, §2

K11 = biological target: T9, K11 (human); test: as above
T9 construct: also called K11 chain; K11-linked ubiquitin chain
Source text: as §1, §2

Kd [1]: 1.2 nM
B1: anti-ubiquitin monobody clone E, Monobody-Nus tag-His6 recombinant protein (designed binder)
chain: LEVVEASPTSIQISWDANIYSVGQGEYVRYYRITYGETGGNSPVQEFTVPGSKSTATISGLKPGVDYTITVYAVTEYSYMYWGWPPISINYRTHHHHHH
notes: Monobody, Nus tag and His6 fused from the N-terminus; also called Ub monobody; not shown: Nus tag for solubilization

percentage of this chain among the 8 ubiquitin chain-derived peptides in the immunoprecipitate (control subtracted) (K33): 0% | percentage of this chain among the 8 ubiquitin chain-derived peptides in the immunoprecipitate (control subtracted) (K27): 0% | percentage of this chain among the 8 ubiquitin chain-derived peptides in the immunoprecipitate (control subtracted) (M1): 0% | percentage of this chain among the 8 ubiquitin chain-derived peptides in the immunoprecipitate (control subtracted) (K63): 19% | percentage of this chain among the 8 ubiquitin chain-derived peptides in the immunoprecipitate (control subtracted) (K6): 4% | percentage of this chain among the 8 ubiquitin chain-derived peptides in the immunoprecipitate (control subtracted) (K29): 10% | percentage of this chain among the 8 ubiquitin chain-derived peptides in the immunoprecipitate (control subtracted) (K48): 61% | percentage of this chain among the 8 ubiquitin chain-derived peptides in the immunoprecipitate (control subtracted) (K11): 6%
B2: Halo tag-fused anti-ubiquitin monobody (His6-Halo tag-TEV recognition sequence-GGGS-monobody, clone C) (designed binder)
chain: HHHHHHGGGSLEVVEASPTSIQISWDAASFGFTHMDKVRYYRITYGETGGNSPVQEFTVPGSKSTATISGLKPGVDYTITVYAVTWYAYSYWGWPPISINYRT
notes: Immobilized on Magne HaloTag Beads; also called Ub monobody; Halo tag-fused monobody; not shown: Halo tag

Kd [1]: 1.1 nM
B3: anti-ubiquitin monobody clone A, Monobody-Nus tag-His6 recombinant protein (designed binder)
chain: LEVVEASPTSIQISWDAYPYYIIGETVRYYRITYGETGGNSPVQEFTVPGSKSTATISGLKPGVDYTITVYAVTYYGNAFWGWPPISINYRTHHHHHH
notes: Fibronectin type III monobody fused from the N-terminus to Nus tag and His6, made in E. coli; also called Ub monobody; not shown: Nus tag for solubilization
